Here are results for 6 molecules from US20050070001A1, “Xylosyltransferase and isoforms thereof” (priority 1999, published 2005).

Data set [1] concerns XT. As to the kind of experiment: Effect of protamine chloride added to the XT assay solution. In kind it is biochemical, human. An excerpt:
UDP-D-xylose: proteoglycan core protein β-D-xylosyltransferase can be isolated and purified from JAR choriocarcinoma cell culture. The isolated protein according to the invention is a single stranded polypeptide with a molecular weight of 120.000. The protein was enzymatically cleaved and eleven peptide fragments were sequenced by Edman degradation (see Examples). XT is present only in very small amounts in animal tissues but unlike other glycosyltransferases, more than 90% of XT is enriched in the medium of cultured cells. The highest secretion of XT activity was measured in JAR choriocarcinoma cell culture, in which sternal cartilage chondrocytes and 21 different human cell lines were examined. To produce a highly enriched XT solution for the isolation of XT, JAR choriocarcinoma cells were adapted to hollow fiber culture conditions using a novel bioreactor (TECNOMOUSE) and Ultradoma-PF medium without serum addition as nutrient. For purification of XT a combination of classic separation methods and new affinity matrices was employed. Therefore, a heparin matrix was used as an affinity ligand for the XT. […]
Determination of XT activity. […] Incorporated radioactivity was determined by liquid scintillation counting.

The target of data set [2] is T1, recombinant XT-I (Homo sapiens, UniProt Q86Y38).
T1 construct: polyhistidine leader of vector pcDNA4/HisMax-TOPO (own knowledge of the vector); made in house; host or cells: CHO-K1, transient transfection with pCG227-XT-I
T1 sequence (Q86Y38 148-959): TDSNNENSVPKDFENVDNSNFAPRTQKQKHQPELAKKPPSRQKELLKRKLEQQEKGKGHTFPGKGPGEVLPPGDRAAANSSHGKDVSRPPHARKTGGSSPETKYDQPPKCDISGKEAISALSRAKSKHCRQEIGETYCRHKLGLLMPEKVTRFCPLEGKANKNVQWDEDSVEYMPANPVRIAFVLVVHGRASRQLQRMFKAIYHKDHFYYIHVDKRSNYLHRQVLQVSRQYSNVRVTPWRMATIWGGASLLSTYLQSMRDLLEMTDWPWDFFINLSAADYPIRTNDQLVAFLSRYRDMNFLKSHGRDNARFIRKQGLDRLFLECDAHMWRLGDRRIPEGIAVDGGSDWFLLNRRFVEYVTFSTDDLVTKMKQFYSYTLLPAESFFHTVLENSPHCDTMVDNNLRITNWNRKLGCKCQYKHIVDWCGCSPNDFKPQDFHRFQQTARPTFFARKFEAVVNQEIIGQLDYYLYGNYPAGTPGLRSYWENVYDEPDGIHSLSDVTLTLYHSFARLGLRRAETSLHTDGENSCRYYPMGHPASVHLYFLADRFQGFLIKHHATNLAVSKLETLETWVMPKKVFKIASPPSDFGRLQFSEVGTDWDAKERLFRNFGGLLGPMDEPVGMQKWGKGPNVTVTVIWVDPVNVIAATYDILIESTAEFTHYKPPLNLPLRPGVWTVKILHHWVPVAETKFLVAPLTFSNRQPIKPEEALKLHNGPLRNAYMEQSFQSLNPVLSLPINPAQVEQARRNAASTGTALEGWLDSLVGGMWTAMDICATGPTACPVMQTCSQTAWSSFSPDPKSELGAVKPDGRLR
Briefly: XT activity assay of recombinant XT-I expressed in CHO-K1 cells with different acceptors and with heparin. In kind it is biochemical. The conditions noted are these: for XT Activitiy pCG227-XT: recombinant XT-I from CHO-K1 cells, immunoprecipitated on beads, named acceptor, without heparin, n.d. = not detected (detection limit 20 μU/l). The source says: The degenerate primers PFF-sense and Lysc-inv1 which were designed upon the amino acid sequence of proteolytic cleaved peptides of human XT-I were used in a PCR reaction with first strand cDNA of placenta poly(A)^+ mRNA as template. […] To clone the complete coding sequence of the novel cDNA, the RACE strategy was employed. The cDNA finally obtained was 3608 bp (FIG. 8A) and contained a single open reading frame encoding a protein of 865 amino acids with a molecular mass of 97.000. The 3′-untranslated region is 850 bp and a 5′-untranslated region of 149 bp was identified with an in-frame stop codon upstream of the ATG codon. […] No detectable XT activity was recovered by the affinity purification from a control transfection sample. The substrate specificity of the recombinant XT-I was similar to that of the XT-I isolated from human body fluids and cell culture supernatants.
Determination of XT activity. Determination of XT activity is based on the incorporation of [14C]-D-xylose into the recombinant bikunin according to a previously described method (Brinkmann et al., 1997, J. Biol. Chem., 272, 11171-11175). For analysis of the substrate specificity of the recombinant xylosyltransferases synthetic peptides containing the XT recognition sequence were used as acceptor. The reaction mixture for the assay contained, in a total volume of 100 μl: 50 μl of XT solution, 25 mM 4-morpholineethanesulfonic acid (pH 6.5), 25 mM KCl, 5 mM KF, 5 MM MgCl2, 5 mM MnCl2, 1.0 μM UDP-[^14C]-D-xylose, and 1.5 μM of the synthetic peptides. After incubation for 75 min at 37° C., the reaction mixtures were placed on discs (25 mm diameter) of Immobilon-AV membrane, which immobilizes even small peptides by covalent links (Pfund & Bourdage, 1990, Mol. Immunol. 27, 495-502), and allowed to dry. It was then washed for 10 min with 10% trichloroacetic acid and three times with 5% trichloroacetic acid solution. Incorporated radioactivity was determined by liquid scintillation counting.
Transfection and transient expression of XT. For construction of a eukaryotic expression vector a DNA fragment including the known coding sequence of XT-I cDNA was amplified by PCR using XT_Exp1L 5′-[…]-3′ and XT_Exp3U 5′-[…]-3′ as primers and placenta first-strand cDNA (Clontech) as template. The 2450 bp fragment obtained was cloned into the vector pcDNA4/HisMax-TOPO (Invitrogen) resulting in the fusion of XT-I to the Xpress epitope. The plasmid pCG227-XT-I was then transiently transfected into CHO-K1 cells. The coding region of the XT-II cDNA was amplified by PCR using the primers AB_Exp9U 5′-AAAGGAAGGCAGAGGAAGC-3′ and AB_Exp3L 5′-ACCCCTCCACTGT-CTGTAAG-3′ and placenta first-strand cDNA as template. The obtained 2440 bp DNA fragment was cloned into the expression vector pcDNA4/HisMax-TOPO resulting in the fusion of XT-II to the aminoterminal Xpress epitope. The plasmid termed pCG226-XT-II was transiently transfected into CHO-K1 cells. 2×10^5 cells precultured for 1 day in a 35 mm diameter cell culture dish were transfected with 2 μg of plasmid DNA and 6 μl of Fugene 6 transfection reagent (Roche, Mannheim, Germany). For determination of transfection efficiency CHO-K1 cells were transfected with 2 μg of the control plasmid pcDNA4/HisMax-TOPO-lacZ. 48 h after transfection the cell culture medium was harvested. Protein G agarose beads (Sigma, Deisenhofen, Germany) and mouse anti-Xpress monoclonal antibody (Invitrogen) were added to the cell culture supernatant and incubated at 4° C. for 1 h. […]

Data set [3] has as its system XT. The conditions noted are these: cited from earlier work.

On to protamine chloride, for which the “effect on XT activity” value in data set [1] was “increased XT activity”.

Regarding “QEEGSGGGGQK [Bikunin peptide QEEGSGGGGQK, synthetic bikunin homologous peptide used as XT acceptor]”, the “XT Activitiy pCG227-XT” value in data set [2] was found to be 463 μU/l.

For the molecule “TENEGSGLTNIK [L-APP peptide TENEGSGLTNIK, synthetic L-APP homologous peptide used as XT acceptor]”, in data set [2], the “XT Activitiy pCG227-XT” value stood at 492 μU/l.

With heparin, the “inhibition of enzyme activity of recombinantly expressed XT-I” value in data set [2] (addition of 250 U of heparin) was “completely inhibited”.

Consider “SENEGSGMAEQK [L-APLP2 peptide SENEGSGMAEQK, synthetic L-APLP2 homologous peptide used as XT acceptor]”, for which the “XT Activitiy pCG227-XT” value in data set [2] was found to be 515 μU/l.

B1: Recombinant bikunin: recombinant bikunin, the inhibitory component of human inter-α-trypsin inhibitor; XT acceptor protein (protein, UniProt P02760 206-352, looked up)
Inter-alpha-trypsin inhibitor …: AVLPQEEEGSGGGQLVTEVTKKEDSCQLGYSAGPCMGMTSRYFYNGTSMACETFQYGGCMGNGNNFVTEKECLQTCRTVAACNLPIVRGPCRAFIQLWAFDAVKGKCVLFPYGGCQGNGNKFYSEKECREYCGVPGDGDEELLRFSN
modifications: Inter-alpha-trypsin inhibitor light chain recombinant
notes: XT acceptor protein
For orientation: Km means the substrate concentration at which the rate is half of its maximum. In the case of B1, in data set [2], the “XT Activitiy pCG227-XT” value is 2854 μU/l. Also, the Km in data set [3] (enriched XT preparation from conditioned cell culture supernatant of human chondrocytes, read-out: Michaelis-Menten (Km) constant for in vitro xylosylation) is 22 µM. In addition, the “decrease of Km in comparison to deglycosylated core protein from bovine cartilage” value in data set [3] (enriched XT preparation from human chondrocytes) is 9 fold.
